Assay [1] has as its target purified FIM1-2 domains of C6 (human) (UniProt P13671). Briefly: ELISA, wells coated with FIM1-2_His, control mouse IgG; replicate 2. On the technique in general: An ELISA detects its analyte on a solid surface through an enzyme-linked reagent.
Assay [2] shares this target. Briefly: ELISA, wells coated with FIM1-2_His, control mouse IgG; replicate 1.
Assay [3] concerns the target C6 no His (human) (UniProt P13671). Briefly: ELISA, wells coated with 'C6 no His', control mouse IgG; replicate 1.
Assay [4] concerns the target human complement protein C6 (human) (UniProt P13671). The experiment in a line: ELISA, wells coated with 'C6 from Comptech', control mouse IgG; replicate 1.
For assay [5] the target is unchanged. Briefly: ELISA, wells coated with 'C6 from Comptech', control mouse IgG; replicate 2.
The target of assay [6] is C6Δ634: 1-634_10xHis (human). Briefly: ELISA, wells coated with the C6 construct, control mouse IgG; replicate 1.
C6Δ634: 1-634_10xHis (human), sequence (P13671 22-634, stated change not applied): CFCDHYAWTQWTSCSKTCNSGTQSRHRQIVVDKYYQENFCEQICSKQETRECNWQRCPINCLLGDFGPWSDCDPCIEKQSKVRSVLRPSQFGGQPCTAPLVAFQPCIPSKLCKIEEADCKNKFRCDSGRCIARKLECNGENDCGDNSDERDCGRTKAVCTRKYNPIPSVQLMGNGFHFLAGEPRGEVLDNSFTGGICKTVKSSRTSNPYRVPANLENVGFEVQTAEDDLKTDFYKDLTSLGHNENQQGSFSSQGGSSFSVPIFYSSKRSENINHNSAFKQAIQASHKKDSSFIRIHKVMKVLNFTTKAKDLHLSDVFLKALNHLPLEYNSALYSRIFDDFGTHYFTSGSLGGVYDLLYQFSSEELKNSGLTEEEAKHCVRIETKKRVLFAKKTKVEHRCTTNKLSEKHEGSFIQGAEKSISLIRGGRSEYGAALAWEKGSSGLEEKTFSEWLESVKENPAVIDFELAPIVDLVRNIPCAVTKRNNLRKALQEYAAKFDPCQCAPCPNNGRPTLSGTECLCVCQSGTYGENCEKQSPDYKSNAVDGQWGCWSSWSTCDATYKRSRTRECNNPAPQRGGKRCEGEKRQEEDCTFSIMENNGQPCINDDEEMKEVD
In assay [7] the target is C6Δ762: 1-762_10xHis (human). The description is as above.
C6Δ762: 1-762_10xHis (human), sequence (P13671 22-762, stated change not applied): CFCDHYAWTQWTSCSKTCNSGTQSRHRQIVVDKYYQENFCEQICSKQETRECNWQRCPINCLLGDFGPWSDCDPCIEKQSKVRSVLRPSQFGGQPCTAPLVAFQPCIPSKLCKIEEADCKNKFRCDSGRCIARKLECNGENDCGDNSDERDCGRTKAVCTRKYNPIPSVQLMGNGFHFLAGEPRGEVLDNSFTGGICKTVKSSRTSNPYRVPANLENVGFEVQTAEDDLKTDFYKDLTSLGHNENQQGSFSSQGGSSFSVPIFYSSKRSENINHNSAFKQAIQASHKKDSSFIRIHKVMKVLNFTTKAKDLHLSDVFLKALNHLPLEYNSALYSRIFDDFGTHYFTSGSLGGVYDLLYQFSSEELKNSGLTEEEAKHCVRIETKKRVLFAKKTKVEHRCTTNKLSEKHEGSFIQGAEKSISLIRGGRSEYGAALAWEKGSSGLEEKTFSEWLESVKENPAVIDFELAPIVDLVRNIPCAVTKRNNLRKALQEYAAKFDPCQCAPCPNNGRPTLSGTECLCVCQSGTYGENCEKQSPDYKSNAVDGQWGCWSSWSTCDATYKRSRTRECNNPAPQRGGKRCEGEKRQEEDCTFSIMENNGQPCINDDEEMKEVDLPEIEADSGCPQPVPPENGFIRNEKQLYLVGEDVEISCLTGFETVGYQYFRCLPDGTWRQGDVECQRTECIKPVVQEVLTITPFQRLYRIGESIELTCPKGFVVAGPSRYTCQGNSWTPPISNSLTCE
Assay [8] deals with C6: 1-934_10xHis (human). The description is as above.
C6: 1-934_10xHis (human), sequence (P13671 22-934): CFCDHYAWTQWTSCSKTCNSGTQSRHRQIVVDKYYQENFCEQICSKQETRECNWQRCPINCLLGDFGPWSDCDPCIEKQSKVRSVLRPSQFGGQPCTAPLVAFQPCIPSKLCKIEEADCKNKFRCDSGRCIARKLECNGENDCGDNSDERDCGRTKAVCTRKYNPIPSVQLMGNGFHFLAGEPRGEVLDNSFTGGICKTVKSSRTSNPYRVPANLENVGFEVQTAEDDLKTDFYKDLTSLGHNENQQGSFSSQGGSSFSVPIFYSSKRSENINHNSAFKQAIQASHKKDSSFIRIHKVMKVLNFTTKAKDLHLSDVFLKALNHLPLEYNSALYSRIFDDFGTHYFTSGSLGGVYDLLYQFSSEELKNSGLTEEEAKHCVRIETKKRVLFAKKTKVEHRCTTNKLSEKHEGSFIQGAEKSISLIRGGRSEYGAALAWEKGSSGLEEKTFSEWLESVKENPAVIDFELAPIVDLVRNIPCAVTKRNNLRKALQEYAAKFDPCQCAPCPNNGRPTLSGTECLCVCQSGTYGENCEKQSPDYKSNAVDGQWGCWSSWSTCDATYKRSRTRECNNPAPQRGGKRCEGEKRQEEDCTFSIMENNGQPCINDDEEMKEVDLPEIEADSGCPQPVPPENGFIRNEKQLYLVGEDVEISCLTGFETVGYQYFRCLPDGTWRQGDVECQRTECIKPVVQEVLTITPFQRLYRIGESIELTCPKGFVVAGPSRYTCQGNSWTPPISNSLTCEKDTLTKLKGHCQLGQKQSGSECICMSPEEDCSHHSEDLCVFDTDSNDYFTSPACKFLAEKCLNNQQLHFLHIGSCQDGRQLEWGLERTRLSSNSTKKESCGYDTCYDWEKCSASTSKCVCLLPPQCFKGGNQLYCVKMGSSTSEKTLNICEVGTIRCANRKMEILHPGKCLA
Assay [9] has as its target C6Δ1-79: SP_79-934_10xHis (human). The assay is described as above.
The target of assay [10] is C6Δ634: 1-634_10xHis (human). Briefly: ELISA, wells coated with the C6 construct, control mouse IgG; replicate 2.
In assay [11] the target is C6Δ762: 1-762_10xHis (human). Described as above.
The target of assay [12] is C6: 1-934_10xHis (human). Described as above.
The target in assay [13] is C6Δ1-79: SP_79-934_10xHis (human). Described as above.
C6Δ1-79: SP_79-934_10xHis (human), sequence (P13671 79-934, stated change not applied): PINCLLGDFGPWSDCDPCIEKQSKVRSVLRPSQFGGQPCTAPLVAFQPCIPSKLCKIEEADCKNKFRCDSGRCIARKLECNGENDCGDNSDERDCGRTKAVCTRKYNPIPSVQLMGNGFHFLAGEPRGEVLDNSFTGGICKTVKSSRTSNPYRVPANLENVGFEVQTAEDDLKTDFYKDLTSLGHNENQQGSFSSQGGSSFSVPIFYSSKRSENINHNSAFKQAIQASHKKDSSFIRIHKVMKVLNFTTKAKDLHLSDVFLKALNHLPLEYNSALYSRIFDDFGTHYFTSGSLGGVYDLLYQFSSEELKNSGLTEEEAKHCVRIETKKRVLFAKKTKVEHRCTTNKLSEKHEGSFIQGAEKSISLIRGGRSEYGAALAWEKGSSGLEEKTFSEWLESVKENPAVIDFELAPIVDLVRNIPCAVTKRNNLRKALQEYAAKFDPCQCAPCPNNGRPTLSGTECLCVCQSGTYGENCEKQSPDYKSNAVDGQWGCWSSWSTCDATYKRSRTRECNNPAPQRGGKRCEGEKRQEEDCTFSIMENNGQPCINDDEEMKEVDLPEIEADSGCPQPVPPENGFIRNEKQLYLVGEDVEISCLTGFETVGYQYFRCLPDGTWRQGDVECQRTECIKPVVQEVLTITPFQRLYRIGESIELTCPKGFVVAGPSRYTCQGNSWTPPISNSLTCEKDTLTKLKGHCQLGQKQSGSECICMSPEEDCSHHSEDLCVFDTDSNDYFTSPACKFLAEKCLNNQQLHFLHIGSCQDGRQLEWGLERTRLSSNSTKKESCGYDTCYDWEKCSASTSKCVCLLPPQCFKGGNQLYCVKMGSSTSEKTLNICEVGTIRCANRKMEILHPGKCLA
Assay [14] has as its target C6 no His (human) (UniProt P13671). The experiment in a line: ELISA, wells coated with 'C6 no His', control mouse IgG; replicate 2.

C6 no His (human), sequence (P13671 22-934 limits assumed): as the sequence (P13671 22-934) above
human complement protein C6 (human), sequence (P13671 22-934 limits assumed): as the sequence (P13671 22-934) above
purified FIM1-2 domains of C6 (human), sequence (P13671 766-934 limits assumed): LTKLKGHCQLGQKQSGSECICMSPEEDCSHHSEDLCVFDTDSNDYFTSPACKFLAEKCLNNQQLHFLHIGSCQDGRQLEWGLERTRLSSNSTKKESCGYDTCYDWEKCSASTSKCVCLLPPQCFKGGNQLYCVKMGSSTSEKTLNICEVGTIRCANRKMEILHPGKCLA

Consider mIgG (antibody), for which the ELISA plate reading (no name or unit printed) came to 0.0429 in assay [1]; 0.0413 in [2]; 0.0488 in assay [3]; 0.0666 in [4]; 0.0728 in assay [5]; 0.0441 in [6]. Besides, the ELISA plate reading (no name or unit printed) in assay [7] is 0.0623; in assay [8] it was 0.0472; in assay [9], 0.0811; in assay [10], 0.0472; in assay [11], 0.0648; in [12], 0.0481. Further, the results for the ELISA plate reading (no name or unit printed) in assay [13] and in assay [14] were 0.0935 and 0.115, respectively.

(Values after US20260125455A1.)
